{"source": "paper PMC8141644", "about": "(2021)", "binders": {"B1": {"name": "dFEB4-1 (antibody, V domains shown)", "VH": "AVTLDESGGGLQTPGGALSLVCKASGFTFSSHGMLWVRQAPGKGLEFVAGISTDGSSTSYGAPVKGRATISRDNGQSTVRLQLNNLRAEDTGTYYCAKDAYRCRNCAEDIDAWGHGTEVIVSS", "VL": "ALTQPSSVSANPGETVKITCSGGGYDGSYYYGWYQQKSPGSAPVTVIYDNTNRPSNIPSRFSGSLSGSTNTLTITGVQAEDEAVYFCGGYDRSGGIFGGGTTLTVL"}, "B2": {"name": "FEB4 (antibody, V domains shown)", "VH": "B1 VH", "VL": "ALTQPSSVSANPGETVKITCSGGYSDDGSYYYYGWFQQKSPGSAPVTVIYDNTNRPSNIPSRFSGSTSGSTSTLTITGVRAEDEAVYYCGSIDTGYAGIFGAGTTLTVL"}}, "key": {"EGFR-ECD [1]": {"target": "T1, EGFR-ECD (UniProt P00533 25-645)", "experiment": "BLI"}, "EGFR-ECD [2]": {"target": "T1, EGFR-ECD", "experiment": "BLI", "remark": "listed apart in the source"}}, "note": "Like-named read-outs stand apart in the source and are kept apart here."}
{"binder": "B1", "values": [{"measurement": "Kd", "setting": "EGFR-ECD [1]", "value": 3.7, "unit": "nM"}]}
{"binder": "B2", "values": [{"measurement": "Kd", "setting": "EGFR-ECD [2]", "value": 29.3, "unit": "nM"}]}
